From publication PMC2586299 (Developmental cell, 2008)
Changes are numbered by the printed parent chain.

B1: VPS4A MIT domain (VPS4A residues 1−84) (domain or fragment, human, UniProt Q9UN37 1-84, looked up)
chain: MTTSTLQKAIDLVTKATEEDKAKNYEEALRLYQHAVEYFLHAIKYEAHSDKAKESIRAKCVQYLDRAEKLKDYLRSKEKHGKKP
B2: GST-CHMP6_(170−181) minimal fragment (domain or fragment, human, UniProt Q96FZ7 170-181, looked up)
chain: LPEVPSEPLPEK
B3: GST-CHMP6_(165−181) fragment (domain or fragment, human, UniProt Q96FZ7 165-181, looked up)
chain: QEQIELPEVPSEPLPEK
B4: VPS4B MIT domain (domain or fragment, human, UniProt O75351 4-82, looked up)
chain: TSPNLQKAIDLASKAAQEDKAGNYEEALQLYQHAVQYFLHVVKYEAQGDKAKQSIRAKCTEYLDRAEKLKEYLKNKEKK
B5: CHMP6_(166−181) MIM2 peptide (peptide, UniProt Q96FZ7 166-181, looked up)
peptide: EQIELPEVPSEPLPEK

What was measured:
CHMP6 MIM2 L178D (human) = experiment: SPR
[1] = target: T1, full length GST-CHMP6_(1−201) (human, UniProt Q96FZ7 1-201); experiment: SPR
T1 sequence (looked up): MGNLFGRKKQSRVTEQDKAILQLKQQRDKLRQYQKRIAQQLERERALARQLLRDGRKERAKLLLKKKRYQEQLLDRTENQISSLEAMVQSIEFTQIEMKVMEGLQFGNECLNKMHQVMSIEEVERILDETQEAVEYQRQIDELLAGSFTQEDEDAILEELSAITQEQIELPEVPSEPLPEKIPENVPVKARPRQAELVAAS

[2] = target: T2, GST-CHMP6 without the final 20 residues (human, UniProt Q96FZ7 1-181); experiment: SPR
T2 sequence (looked up): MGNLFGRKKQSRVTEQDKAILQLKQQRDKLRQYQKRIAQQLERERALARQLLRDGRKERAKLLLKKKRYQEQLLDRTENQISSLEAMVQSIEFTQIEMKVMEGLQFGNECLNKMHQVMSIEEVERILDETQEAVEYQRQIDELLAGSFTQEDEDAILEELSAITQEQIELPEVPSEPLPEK

[3] = target: B1; experiment: SPR
VPS4A MIT_(L64D) = target: T3, VPS4A MIT_(L64D) (human, UniProt Q9UN37 1-84, L64D); experiment: SPR
T3 sequence (looked up): B1 chain with L64D

[4] = target: T4, GST-CHMP6 (construct of the VPS4B measurement not stated) (human, UniProt Q96FZ7 1-201); experiment: SPR
T4 sequence (looked up): T1 sequence (looked up)

[5] = target: B1; experiment: NMR solution structure

In the case of B1, the Kd (CHMP6 MIM2 L178D (human)) is reported as 44.4 µM, the Kd [1] is reported as 33 ± 7 µM and the Kd [2] is reported as 23.2 ± 0.2 µM.

For B2, the Kd [3] was 8 ± 0.1 µM.

B3 gave a Kd (VPS4A MIT_(L64D)) of 26.1 ± 0.8 µM and a Kd [3] of 5.8 ± 0.8 µM.

B4 was tested, and the Kd [4] was 786 ± 6 µM.

B5: binds [5].
